In brackets after ≈: the same amount, converted by molar mass. Read-outs that look alike come from different tables or passages of the source. Where a SMILES comes first, the peptide text is derived from it. The star is where a group is joined. Belotecan = CC[C@@]1(O)C(=O)OCc2c1cc1n(c2=O)Cc2c-1nc1ccccc1c2CCN(C(C)C)*; X7 = CC[C@@]1(O)C(=O)OCc2c1cc1n(c2=O)Cc2c-1nc1ccccc1c2CCN(C)*; Propanoyl(3-maleimido) = O=C1C=CC(=O)N1CCC(=O)*; PEG6 = NCCOCCOCCOCCOCCOCCOCCC(=O)O
Legend:
[1] = Tumor homogenate activation efficiency, breast cancer tissue (Examples 28, 37); format: in vitro ADME; conditions: pH 5.0, 37° C., 2 h; Table 10
How it was run: (§1)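 Conjugate at 1 mg/ml in pH 5.0 buffer (50 mM MES, 250 mM NaCl) incubated with 100 μg tissue homogenate at 37° C. for 2 h. HPLC read-out; release % = Belotecan peak area over total area of Belotecan plus all Belotecan-containing species.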

[2] = tested on: colo320 colorectal cancer tumor model
How it was run: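 Dosing was once a week for four weeks, with saline as control, in randomized groups of three mice. Groups were formed after subcutaneous colo320 xenografts (7.5×10^6 cells, right chest) grew to ≥120 mm^3 in female 6–8-week-old BALB/c nude mice.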

[3] = tested on: sarcoma SJSA-1 tumor model; experiment: Efficacy in animal model of sarcoma SJSA-1, 30 mg/kg once a week for two weeks (Example 40); format: in vivo, BALB/c mice; conditions: 30 mg/kg once a week for two weeks; Day 14
Description: Test objective: To further compare the antitumor efficacy of different polypeptide Linkers in an animal tumor model of sarcoma SJSA-1.
Test drug: Polypeptide conjugate and normal saline control group.
The control group was administered normal saline. Administration was performed once a week for two weeks.

[4] = Tumor homogenate activation efficiency, non-small cell lung cancer tissue (Examples 28, 37); format: in vitro ADME; conditions: pH 5.0, 37° C., 2 h; Table 10
How it was run: as §1

[5] = Tumor homogenate activation efficiency, sarcoma tissue (Examples 28, 37); format: in vitro ADME; conditions: pH 5.0, 37° C., 2 h; Table 10
How it was run: as §1

[6] = Tumor homogenate activation efficiency, colorectal cancer tissue (Example 37); format: in vitro ADME; conditions: pH 5.0, 37° C., 2 h; Table 10
Description: Buffer preparation: 50 mM PH buffer (MES), 250 mM NaCl, pH adjusted to 5.0 with 0.5 M of sodium hydroxide.
The polypeptide conjugate was prepared into a 1 mg/ml solution with pH 5.0 buffer, 100 μg of tumor tissue homogenate was added, (the tumor tissue homogenate was the homogenate of tumor tissues prepared with a Jingxin F6/10 handheld homogenizer), and the solution was placed at 37° C. for 2 h. The tumor tissue homogenate could effectively activate the polypeptide conjugate and release Belotecan, and the activation efficiencies of the drugs in tumor tissues were compared by HPLC allowing determination of a decrease in the compounds and an increase in Belotecan:
Release percentage=peak area of Belotecan/total peak area of Belotecan and all other Belotecan-containing compounds

[7] = tested on: sarcoma SJSA-1 tumor model; conditions: Table 7
How it was run: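 Female BALB/c nude mice (6-8 weeks) bearing subcutaneous right-chest SJSA-1 xenografts from 2×10^7 cells were randomized, three per group, once tumors reached at least 100 mm^3. Treatment given once a week for three weeks starting day 1; saline controls.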

[8] = Homogenate activation efficiency, heart tissue (Examples 28, 37); format: in vitro ADME; conditions: pH 5.0, 37° C., 2 h; Table 10
[9] = Tumor homogenate activation efficiency, ovarian cancer tissue (Examples 28, 37); format: in vitro ADME; conditions: pH 5.0, 37° C., 2 h; Table 10
How it was run: as §1

SJSA-1 (sarcoma tissue) = experiment: cells; format: cell-based; conditions: CCK8, 48 h; Table 6
How it was run: (§2)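 CCK8 absorbance at 450 nm, read after roughly 2 h of staining, gave cell survival rates from which IC50 values were derived. Beforehand, 5,000 cells/well were exposed for 48 h at 37° C to serial drug dilutions (triplicate wells; 0.1% DMSO vehicle control; cell-free blanks).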

A2780 (ovarian cancer) = experiment: cells; format: cell-based; conditions: CCK8, 48 h; Table 6
How it was run: as §2

[10] = tested on: A549 (non-small cell lung cancer); experiment: cells; format: cell-based; conditions: CCK8, 48 h; Table 6
How it was run: as §2

[11] = tested on: SKBR3 (breast cancer tissue); experiment: cells; format: cell-based; conditions: CCK8, 48 h; Table 6
How it was run: as §2

[12] = tested on: colo320 (colorectal cancer tissue); experiment: cells; format: cell-based; conditions: CCK8, 48 h; Table 6
Description: Different types of cells were cultured with complete media (RPMI1640 (DMEM high sugar medium)+10% fetal bovine serum+1×P/S+sodium pyruvate 1 mM solution) in an incubator at 37° C. and 5% CO2 until the cells grew to a sufficient number, and the cells were collected, centrifuged at 1,000 g for 5 min, resuspended with an appropriate volume of a 10% RMPI1640 (DMEM high sugar medium) medium and adjusted to an appropriate density. In a 96-well culture plate, 100 μL of cell culture fluid containing different concentrations of drugs was added, control wells (0.1% DMSO) with only corresponding drug solvents without drugs, as well as blank wells (Blank) with only the medium but without cells were set, and three parallel wells were set in each group. After that, the cells after cell counting were inoculated onto 96-well culture plates, with 100 μL of cell suspension per well, and an inoculation concentration of the cells was 5,000 cells (100 μL)/well. The plates were then cultured in a CO2 (5%) incubator at 37° C. for 48 h. After 48 h, 10 μL of a cell proliferation staining reagent (CCK8) was added to each well, the plates were incubated in a cell incubator for around 2 h, and an absorbance at 450 nm was detected.
Cell survival rates and median inhibitory concentrations (IC50) of the drugs on the cells were calculated.

[13] = MTD determination in mice (Examples 27, 36, 44); format: in vivo; conditions: female, mouse, in vivo; mice, monitored for 14 d; Table 9
Excerpt: Test animals: 6-8 weeks old mice, all female; mice were grouped randomly, with six mice in each group, administered with drugs at different concentration gradients separately and monitored for 14 d. A mouse was euthanized at a loss of 20% of its initial weight and deemed to have died of poisoning.

[14] = 45 mg/kg once a week for four weeks, Table 8
[15] = Table 14 (Example 43), dose 45 mg/kg, once a week for four weeks, BALB/c mice
[16] = 45 mg/kg once a week for three weeks

| SMILES | Percentage of release efficiency (%) Breast cancer tissue (SKBR3) [1] [%] | Mouse weight (%) ([2]; 15 mg/kg once a week for four weeks, Table 8) | Mouse weight (%) [2, 14] | Mouse weight (%) [2, 15] | Mouse weight (%) on Day 14 [3] [%] | Percentage of release efficiency (%) Non-small cell lung cancer tissue (A549) [4] [%] | Percentage of release efficiency (%) Sarcoma tissue (SJSA1) [5] [%] | Percentage of release efficiency (%) Colorectal cancer tissue (colo320) [6] [%] | Mouse weight (%) ([7]; 15 mg/kg once a week for three weeks) | Mouse weight (%) [7, 16] | Percentage of release efficiency (%) Heart tissue [8] [%] | Percentage of release efficiency (%) Ovarian cancer tissue (A2780) [9] [%] | IC50 Sarcoma tissue (SJSA-1) (SJSA-1 (sarcoma tissue)) [µg/mL] | IC50 Ovarian cancer tissue (A2780) (A2780 (ovarian cancer)) [µg/mL] | IC50 Non-small cell lung cancer tissue (A549) [10] [µg/mL] | IC50 Breast cancer tissue (SKBR3) [11] [µg/mL] | IC50 Colorectal cancer tissue (colo320) [12] [µg/mL] | MTD at 14 d [13] [mg/kg] |
| --- | --- | --- | --- | --- | --- | --- | --- | --- | --- | --- | --- | --- | --- | --- | --- | --- | --- | --- |
| CC[C@@]1(O)C(=O)OCc2c1cc1n(c2=O)Cc2c-1nc1ccccc1c2CCN(C(=O)[C@H](CC(C)C)NC(=O)[C@H](CC(N)=O)NC(=O)[C@H](C)NC(=O)[C@H](C)NC(=O)CCOCCOCCOCCOCCOCCOCCNC(=O)CCN1C(=O)C=CC1=O)C(C)C [MI-6PEG-AANL-Belotecan] ({Propanoyl(3-maleimido)-PEG6}-AANL-Belotecan) | 69.5 | +22% | +2% | +2% | −1.3 | 76.5 | 75.5 | 75.6 | +24% | +21% | 2.5 | 81.2 | 0.90 (≈ 0.698 µM) | 0.91 (≈ 0.706 µM) | 1.55 (≈ 1.2 µM) | 2.48 (≈ 1.92 µM) | 2.74 (≈ 2.12 µM) | 150 |
| CC[C@@]1(O)C(=O)OCc2c1cc1n(c2=O)Cc2c-1nc1ccccc1c2CCN(C)C(=O)[C@H](CC(C)C)NC(=O)[C@H](CC(N)=O)NC(=O)[C@H](C)NC(=O)[C@H](C)NC(=O)CCOCCOCCOCCOCCOCCOCCNC(=O)CCN1C(=O)C=CC1=O [MI-6PEG-AANL-D1] ({Propanoyl(3-maleimido)-PEG6}-AANL-X7) | 80 |  | +16% | +16% |  | 69.5 | 81.2 | 72.4 |  | +29% | 3 | 66.4 | 2.33 (≈ 1.85 µM) | 2.09 (≈ 1.66 µM) | 3.05 (≈ 2.42 µM) | 3.25 (≈ 2.58 µM) | 3.82 (≈ 3.03 µM) | 200 |
